The values below come from patent US20200262920A1 (AMPHIVENA THERAPEUTICS, published 2020).

B1: CD33/CD3 2×2 T-cell engager 05 (bispecific antibody)
chain: DIQMTQSPSSLSASVGDRVTITCRSSTGAVTTSNYANWVQQKPGKAPKGLIGGTNKRAPGVPARFSGSGSGTDFTLTISSLQPEDFATYYCALWYSNLWVFGQGTKVEIKGGSGGSQVQLVQSGAEVKKPGASVKVSCKASGYTFTSYDINWVRQAPGQGLEWMGWMNPNSGNTGFAQKFQGRVTMTRDTSTSTVYMELSSLRSEDTAVYYCARDRANTDYSFGMDVWGQGTLVTVSSGGSGGQSVLTQPPSASGTPGQRVTISCSGSRSNIGSNTVNWYQQLPGTAPKLLIYGNNQRPSGVPDRFSGSKSGTSASLAISGLQSEDEADYYCATWDDSLIGWVFGGGTKLTVLGGSGGSEVQLVESGGGLVQPGGSLRLSCAASGFTFSTYAMNWVRQAPGKGLEWVGRIRSKYNNYATYYADSVKDRFTISRDDSKNSLYLQMNSLKTEDTAVYYCARHGNFGNSYVSWFAYWGQGTLVTVSSAAAGSHHHHHH
notes: Non-covalent homodimer; also called 2×2 T-cell engager 5
B2: CD33/CD3 2×2 T-cell engager 06 (bispecific antibody)
chain: B1 chain with F223L
notes: Non-covalent homodimer; also called 2×2 T-cell engager 6
B3: CD33/CD3 2×2 T-cell engager 13 (bispecific antibody)
chain: DIQMTQSPSSLSASVGDRVTITCRSSTGAVTTSNYANWVQQKPGKAPKGLIGGTNKRAPGVPSRFSGSLIGTDFTLTISSLQPEDFATYYCALWYSNLWVFGQGTKVEIKGGSGGSQVQLVQSGAEVKKPGASVKVSCKASGYTFTSYDINWVRQAPGQGLEWMGWMNPNSGNTGFAQKFQGRVTMTRDTSTSTVYMELSSLRSEDTAVYYCARDRAVTDYYYGMDVWGQGTLVTVSSGGSGQSVLTQPPSASGTPGQRVTISCSGSRSNIGSNTVNWYQQLPGTAPKLLIYGNNQRPSGVPDRFSGSKSGTSASLAISGLQSEDEADYYCATWDDSLIGWVFGGGTKLTVLGGSGGSEVQLVESGGGLVQPGGSLRLSCAASGFTFSTYAMNWVRQAPGKGLEWVGRIRSKYNNYATYYADSVKDRFTISRDDSKNSLYLQMNSLKTEDTAVYYCARHGNFGNSYVSWFAYWGQGTLVTVSSAAAGSHHHHHH
notes: Non-covalent homodimer
B4: CD33/CD3 2×2 T-cell engager 15 (bispecific antibody)
chain: B3 chain with G49A, T72D, D73K, F74A, V218N, Y222S, Y223F, W469Y
notes: Non-covalent homodimer
B5: CD33/CD3 2×2 T-cell engager 14 (bispecific antibody)
chain: B3 chain with G49A, T72D, D73K, F74A, V218N, Y221F, Y222S, W469Y
notes: Non-covalent homodimer
B6: CD33/CD3 2×2 T-cell engager 24 (bispecific antibody)
chain: DIQMTQSPSSLSASVGDRVTITCRSSTGAVTTSNYANWVQQKPGKAPKALIGGTNKRAPGVPSRFSGSLIGDKATLTISSLQPEDFATYYCALWYSNLWVFGQGTKVEIKGGSGGSQVQLVQSGAEVKKPGSSVKVSCKASGGTFDSYAISWVRQAPGQGLEWMGGIIPIFGSAHYSQKFQGRVTITADESTSTAYMELSSLRSEDTAVYYCAREYYYDSSEWAFDIWGQGTLVTVSSGGSGQSVLTQPPSASGTPGQRVTISCSGSSSNIGDNVVNWYQQLPGTAPKLLIYSTNKRPSGVPDRFSGSKSGSSASLAISGLQSEDEADYYCAAWDDSLSAYVFGGGTKLTVLGGSGGSEVQLVESGGGLVQPGGSLRLSCAASGFTFSTYAMNWVRQAPGKGLEWVGRIRSKYNNYATYYADSVKDRFTISRDDSKNSLYLQMNSLKTEDTAVYYCARHGNFGNSYVSYFAYWGQGTLVTVSSAAAGSHHHHHH
notes: Non-covalent homodimer

Changes are numbered by the printed parent chain. “And” between values parts separate entries of the source, which are not always exact repeats. Equal values may be shown once.

The first test deals with T1, human CD33 (human, UniProt P20138 18-364).
T1 construct: whole, on cells; also called huCD33; CD33 on HL-60, KG-1, KG-1a, U-937 cells
T1 sequence (P20138 18-364): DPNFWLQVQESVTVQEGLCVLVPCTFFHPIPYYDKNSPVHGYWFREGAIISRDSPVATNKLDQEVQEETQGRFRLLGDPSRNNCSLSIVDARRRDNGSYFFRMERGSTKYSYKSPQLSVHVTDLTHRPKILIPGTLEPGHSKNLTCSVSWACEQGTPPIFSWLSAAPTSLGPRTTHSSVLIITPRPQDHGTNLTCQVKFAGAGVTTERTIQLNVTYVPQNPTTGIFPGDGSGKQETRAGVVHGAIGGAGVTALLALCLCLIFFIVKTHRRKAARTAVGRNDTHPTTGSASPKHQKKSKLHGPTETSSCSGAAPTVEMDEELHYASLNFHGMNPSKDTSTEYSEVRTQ
The test can be described thus: flow cytometry titration, U-937 cells. On the procedure:
(§1) Cells were incubated with 100 μL of serial dilutions of CD33/CD3 2×2 T-cell engagers. After washing three times with FACS buffer the cells were incubated with 0.1 mL of 10 μg/mL mouse monoclonal anti-His antibody in the same buffer for 45 min on ice. After a second washing cycle, the cells were incubated with 0.1 mL of 15 μg/mL FITC-conjugated goat anti-mouse IgG antibodies under the same conditions as before. As a control, cells were incubated with the anti-His IgG followed by the FITC-conjugated goat anti-mouse IgG antibodies without anti-CD33 2×2 T-cell engagers. The cells were then washed again and resuspended in 0.2 mL of FACS buffer containing 2 μg/mL propidium iodide (PI) in order to exclude dead cells. The fluorescence of 1×10⁴ living cells was measured using a Beckman-Coulter FC500 MPL flow cytometer using the MXP software (Beckman-Coulter, Krefeld, Germany) or a Millipore Guava EasyCyte flow cytometer using the Incyte software (Merck Millipore, Schwalbach, Germany). Mean fluorescence intensities of the cell samples were calculated using CXP software (Beckman-Coulter, Krefeld, Germany) or Incyte software (Merck Millipore, Schwalbach, Germany). After subtracting the fluorescence intensity values of the cells stained with the secondary and tertiary reagents alone the values were used for calculation of the KD values with the equation for one-site binding (hyperbola) of the GraphPad Prism (version 6.00 for Windows, GraphPad Software, La Jolla Calif. USA). […]
By Kd is commonly meant a measure of binding affinity in units of concentration. Read a low Kd as higher affinity. With B1, the Kd was 6.2 nM.

On to B2, for which the Kd came out at 1.6 nM.

The molecule B3 showed a Kd of 0.5 nM.

B4: the Kd stood at 0.9 nM.

Consider B5, for which the Kd turned out to be 1.2 nM.

On to B6, for which binding was characterised by a dissociation constant (Kd) of 39.5 nM.

For the next test, the target named is T1, human CD33. The test can be described thus: cell-based or functional assay.
Turning to B5, the “EC50, cytotoxicity on HL-60” value was 1.6 pM and 168 pg/mL; the “EC50, cytotoxicity on KG-1” value is 2.6 pM and 273 pg/mL; the “EC50, cytotoxicity on U-937” value was 3.6 pM and 378 pg/mL; the “EC50, cytotoxicity, mean of HL-60, U-937, KG-1” value is 2.6 pM and 273 pg/mL.

A further test has as its target T1, human CD33. As to the kind of experiment: flow cytometry titration, KG-1 cells. On the procedure: as §1
(Flow cytometry measures light scatter and fluorescence of single cells or particles in a stream.)
Take B1: the Kd is 1.2 nM.

For B2, the Kd is 0.5 nM.

Turning to B3, the Kd came to 0.3 nM.

The molecule B4 gave a Kd of 0.3 nM.

For B5, the Kd is 0.3 nM.

The molecule B6 showed a Kd of 12.4 nM.

The target in a further test is T1, human CD33. As to the kind of experiment: flow cytometry, HL-60 cells.
For B1, the affinity, expressed as Kd, was 1 nM.

For B2, the Kd came to 0.4 nM.

In turn, B3 had a Kd of 0.2 nM.

Consider B4, for which the Kd was 0.4 nM.

B5 registered a Kd of 0.3 nM.

In the case of B6, the Kd was 5.6 nM.

For a further test, the target named is T2, human CD3 (human, UniProt P07766 23-207; P09693 23-182; P04234 22-171; P20963 22-164).
T2 construct: whole, on cells; the description names the epsilon chain only 'in certain instances'; also called hu CD3; CD3 on T cells
T2 sequence (P07766 23-207, chain 1 of 4): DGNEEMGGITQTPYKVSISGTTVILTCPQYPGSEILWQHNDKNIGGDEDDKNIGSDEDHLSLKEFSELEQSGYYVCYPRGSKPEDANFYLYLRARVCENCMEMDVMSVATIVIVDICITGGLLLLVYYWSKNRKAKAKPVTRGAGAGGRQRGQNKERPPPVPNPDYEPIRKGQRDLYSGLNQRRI
T2 sequence (P09693 23-182, chain 2 of 4): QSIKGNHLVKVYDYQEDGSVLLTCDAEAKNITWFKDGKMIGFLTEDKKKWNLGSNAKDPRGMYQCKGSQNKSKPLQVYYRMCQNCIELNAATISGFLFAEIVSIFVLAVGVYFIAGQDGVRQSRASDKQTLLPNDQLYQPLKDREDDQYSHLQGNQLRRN
T2 sequence (P04234 22-171, chain 3 of 4): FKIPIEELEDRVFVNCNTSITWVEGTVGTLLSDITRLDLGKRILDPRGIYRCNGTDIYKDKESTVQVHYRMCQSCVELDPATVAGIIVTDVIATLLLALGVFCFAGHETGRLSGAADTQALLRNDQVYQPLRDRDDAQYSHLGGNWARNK
T2 sequence (P20963 22-164, chain 4 of 4): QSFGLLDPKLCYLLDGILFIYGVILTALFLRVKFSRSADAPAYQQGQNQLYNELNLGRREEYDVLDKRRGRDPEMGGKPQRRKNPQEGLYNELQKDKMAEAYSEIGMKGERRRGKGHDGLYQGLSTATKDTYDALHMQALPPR
As to the kind of experiment: flow cytometry titration, T cells (human CD3+).
The molecule B1 displayed a Kd of 69.5 nM.

Take B2: binding was put at a Kd of 86.3 nM.

For B3, the affinity, expressed as Kd, was 55.7 nM.

With B4, the Kd amounted to 1.3 nM.

On to B5, for which binding was characterised by a dissociation constant (Kd) of 2.1 nM.

B6 showed a dissociation constant (Kd) of 2.3 nM.

The target of a further test is T2, human CD3. As to the kind of experiment: flow cytometry, human T-cells.
Molecule B1 yielded a Kd of 69.5 nM.

The molecule B2 yielded a Kd of 86.3 nM.

As for B3, the Kd is 55.7 nM.

B4: binding was characterised by a dissociation constant (Kd) of 1.3 nM.

As to B5, the Kd was 2.1 nM.

On to B6, for which the Kd is 2.3 nM.

For a further test, the target named is T1, human CD33. As to the kind of experiment: flow cytometry titration, HL-60 cells. On the procedure:
as §1
Molecule B1 yielded a Kd of 1 nM.

For the molecule B2, the Kd turned out to be 0.4 nM.

B3 showed an equilibrium dissociation constant (Kd) of 0.2 nM.

As to B4, the Kd was found to be 0.4 nM.

Turning to B5, binding was put at a Kd of 0.3 nM.

With B6, binding was put at a Kd of 5.6 nM.

For the next test, the target named is T1, human CD33. As to the kind of experiment: cell-based or functional assay. This is another data set of the same source.
As for B1, the “EC50 on HL-60 (cytotoxicity)” value was 0.0027 nM.

With B2, the “EC50 on HL-60 (cytotoxicity)” value was found to be 0.0016 nM.

Regarding B3, the “EC50 on HL-60 (cytotoxicity)” value is 0.0011 nM.

Take B4: the “EC50 on HL-60 (cytotoxicity)” value was 0.0018 nM.

B5: the “EC50 on HL-60 (cytotoxicity)” value came out at 0.0016 nM.

With B6, the “EC50 on HL-60 (cytotoxicity)” value was 0.0096 nM.

The target of another test is T2, human CD3. As to the kind of experiment: cell-based or functional assay.
As to B1, the “CD25 Induction EC50” value turned out to be 0.116 nM, the “CD69 Induction EC50” value was determined as 0.074 nM and the “T cell Proliferation in PBMC EC50” value amounted to 0.074 nM.

Consider B2, for which the “CD25 Induction EC50” value turned out to be 0.039 nM, the “CD69 Induction EC50” value turned out to be 0.021 nM and the “T cell Proliferation in PBMC EC50” value worked out at 0.048 nM.

Take B3: the “CD25 Induction EC50” value worked out at 0.03 nM, the “CD69 Induction EC50” value is 0.022 nM and the “T cell Proliferation in PBMC EC50” value stood at 0.023 nM.

In the case of B4, the “CD25 Induction EC50” value came out at 0.006 nM, the “CD69 Induction EC50” value came out at 0.007 nM and the “T cell Proliferation in PBMC EC50” value amounted to 0.007 nM.

Regarding B5, the “CD25 Induction EC50” value stood at 0.01 nM, the “CD69 Induction EC50” value was 0.007 nM and the “T cell Proliferation in PBMC EC50” value stood at 0.006 nM.

For B6, the “CD69 Induction EC50” value came to 0.057 nM and the “T cell Proliferation in PBMC EC50” value was determined as 0.264 nM.
